Results reported in the supplement of paper PMC11246515.
± gives the standard deviation of the averaged measurements.

Assay: total protein half-life in vivo (active degradation + dilution); higher = more stable protein
[1] = E. coli NCM3722 delta-clpP delta-lon delta-hslV, growth: N-lim chemostat, doubling time 6 h
[2] = E. coli NCM3722 delta-clpP, growth: N-lim chemostat, doubling time 6 h
[3] = E. coli NCM3722 delta-hslV, growth: N-lim chemostat, doubling time 6 h
[4] = E. coli NCM3722 delta-lon, growth: N-lim chemostat, doubling time 6 h
[5] = E. coli NCM3722 delta-smpB, growth: N-lim chemostat, doubling time 6 h
[6] = wild type E. coli NCM3722, growth: C-lim chemostat, doubling time 3 h
[7] = wild type E. coli NCM3722, growth: C-lim chemostat, doubling time 6 h
[8] = wild type E. coli NCM3722, growth: C-lim chemostat, doubling time 12 h
[9] = wild type E. coli NCM3722, growth: N-lim chemostat, doubling time 6 h
[10] = wild type E. coli NCM3722, growth: N-lim chemostat, doubling time 12 h
[11] = wild type E. coli NCM3722, growth: P-lim chemostat, doubling time 6 h
[12] = wild type E. coli NCM3722, growth: P-lim chemostat, doubling time 12 h

Sequence | total protein half-life in vivo [1] [h] | total protein half-life in vivo [2] [h] | total protein half-life in vivo [3] [h] | total protein half-life in vivo [4] [h] | total protein half-life in vivo [5] [h] | total protein half-life in vivo [6] [h] | total protein half-life in vivo [7] [h] | total protein half-life in vivo [8] [h] | total protein half-life in vivo [9] [h] | total protein half-life in vivo [10] [h] | total protein half-life in vivo [11] [h] | total protein half-life in vivo [12] [h]
MSKVTPQPKIGFVSLGCPKNLVDSERILTELRTEGYDVVPSYDDADMVIVNTCGFIDSAVQESLEAIGEALNENGKVIVTGCLGAKEDQIREVHPKVLEITGPHSYEQVLEHVHHYVPKPKHNPFLSLVPEQGVKLTPRHYAYLKISEGCNHRCTFCIIPSMRGDLVSRPIGEVLSEAKRLVDAGVKEILVISQDTSAYGVDVKHRTGFHNGEPVKTSMVSLCEQLSKLGIWTRLHYVYPYPHVDDVIPLMAEGKILPYLDIPLQHASPRILKLMKRPGSVDRQLARIKQWREICPELTLRSTFIVGFPGETEEDFQMLLDFLKEARLDRVGCFKYSPVEGADANALPDQVPEEVKEERWNRFMQLQQQISAERLQEKVGREILVIIDEVDEEGAIGRSMADAPEIDGAVYLNGETNVKPGDILRVKVEHADEYDLWGSRV [P0AEI4] | 4.5 ± 0.2 | 2.28 ± 0.062 | 3.6 ± 0.089 | 4.08 ± 0.84 | 2.94 ± 0.053 | 2.36 ± 0.54 | 4.39 ± 0.39 | 7.02 ± 1.1 | 3.47 ± 0.46 | 5.31 ± 0.15 | 4.37 ± 0.28 | 6.68 ± 0.64
MSLAKDNIWKLLAPLVVMGVMFLIPVPDGMPPQAWHYFAVFVAMIVGMILEPIPATAISFIAVTICVIGSNYLLFDAKELADPAFNAQKQALKWGLAGFSSTTVWLVFGAFIFALGYEVSGLGRRIALFLVKFMGKRTLTLGYAIVIIDILLAPFTPSNTARTGGTVFPVIKNLPPLFKSFPNDPSARRIGGYLMWMMVISTSLSSSMFVTGAAPNVLGLEFVSKIAGIQISWLQWFLCFLPVGVILLIIAPWLSYVLYKPEITHSEEVATWAGDELKTMGALTRREWTLIGLVLLSLGLWVFGSEVINATAVGLLAVSLMLALHVVPWKDITRYNSAWNTLVNLATLVVMANGLTRSGFIDWFAGTMSTHLEGFSPNATVIVLVLVFYFAHYLFASLSAHTATMLPVILAVGKGIPGVPMEQLCILLVLSIGIMGCLTPYATGPGVIIYGCGYVKSKDYWRLGAIFGVIYISMLLLVGWPILAMWN [P0AE74] |  | 7.68 |  |  |  |  |  |  |  |  |  | 
MSLLAQLDQKIAANGGLIVSCQPVPDSPLDKPEIVAAMALAAEQAGAVAIRIEGVANLQATRAVVSVPIIGIVKRDLEDSPVRITAYIEDVDALAQAGADIIAIDGTDRPRPVPVETLLARIHHHGLLAMTDCSTPEDGLACQKLGAEIIGTTLSGYTTPETPEEPDLALVKTLSDAGCRVIAEGRYNTPAQAADAMRHGAWAVTVGSAITRLEHICQWYNTAMKKAVL [P0A761] |  | 5.64 | 3.95 | 4.21 ± 0.027 | 4.27 | 2.9 ± 0.27 | 5.06 ± 0.56 | 10.3 ± 1.4 | 4.14 ± 0.36 | 7.56 | 5.84 ± 1 | 9.47 ± 0.41
MSLNFLDFEQPIAELEAKIDSLTAVSRQDEKLDINIDEEVHRLREKSVELTRKIFADLGAWQIAQLARHPQRPYTLDYVRLAFDEFDELAGDRAYADDKAIVGGIARLDGRPVMIIGHQKGRETKEKIRRNFGMPAPEGYRKALRLMQMAERFKMPIITFIDTPGAYPGVGAEERGQSEAIARNLREMSRLGVPVVCTVIGEGGSGGALAIGVGDKVNMLQYSTYSVISPEGCASILWKSADKAPLAAEAMGIIAPRLKELKLIDSIIPEPLGGAHRNPEAMAASLKAQLLADLADLDVLSTEDLKNRRYQRLMSYGYA [P0ABD5] | 6.13 ± 0.7 |  | 6.72 ± 0.71 | 7.18 ± 0.38 | 5.526 ± 0.043 | 3.63 ± 0.15 | 7.76 ± 0.089 | 12.5 ± 0.96 | 6.34 ± 0.58 | 11.4 ± 2.5 | 6.27 ± 0.27 | 13.9 ± 1.9
MSLNLVSEQLLAANGLKHQDLFAILGQLAERRLDYGDLYFQSSYHESWVLEDRIIKDGSYNIDQGVGVRAISGEKTGFAYADQISLLALEQSAQAARTIVRDSGDGKVQTLGAVEHSPLYTSVDPLQSMSREEKLDILRRVDKVAREADKRVQEVTASLSGVYELILVAATDGTLAADVRPLVRLSVSVLVEEDGKRERGASGGGGRFGYEFFLADLDGEVRADAWAKEAVRMALVNLSAVAAPAGTMPVVLGAGWPGVLLHEAVGHGLEGDFNRRGTSVFSGQVGELVASELCTVVDDGTMVDRRGSVAIDDEGTPGQYNVLIENGILKGYMQDKLNARLMGMTPTGNGRRESYAHLPMPRMTNTYMLPGKSTPQEIIESVEYGIYAPNFGGGQVDITSGKFVFSTSEAYLIENGKVTKPVKGATLIGSGIETMQQISMVGNDLKLDNGVGVCGKEGQSLPVGVGQPTLKVDNLTVGGTA [P0AGG8] | 5.22 ± 1.1 | 3.75 ± 0.12 | 3.805 ± 0.0063 | 4.52 ± 0.13 | 3.73 ± 0.064 | 2.74 ± 0.14 | 5.14 ± 0.45 | 8.1 ± 0.85 | 3.88 ± 0.13 | 6.45 ± 0.19 | 5.11 ± 0.16 | 11 ± 1.7
MSLPHLSLADARNLHLAAQGLLNKPRRRASLEDIPATISRMSLLQIDTINIVARSPYLVLFSRLGNYPAQWLDESLARGELMEYWAHEACFMPRSDFRLIRHRMLAPEKMGWKYKDAWMQEHEAEIAQLIQHIHDKGPVRSADFEHPRKGASGWWEWKPHKRHLEGLFTAGKVMVIERRNFQRVYDLTHRVMPDWDDERDLVSQTEAEIIMLDNSARSLGIFREQWLADYYRLKRPALAAWREARAEQQQIIAVHVEKLGNLWLHDDLLPLLERALAGKLTATHSAVLSPFDPVVWDRKRAEQLFDFSYRLECYTPAPKRQYGYFVLPLLHRGQLVGRMDAKMHRQTGILEVISLWLQEGIKPTTTLQKGLRQAITDFANWQQATRVTLGCCPQGLFTDCRTGWEIDPVA | 6.77 |  |  |  |  |  |  |  |  |  |  | 
MSLPSIPSFVLSGLLLICLPFSSFASATTSHISFSYAARQRMQNRARLLKQYQTHLKKQASYIVEGNAESKRALRQHNREQIKQHPEWFPAPLKASDRRWQALAENNHFLSSDHLHNITEVAIHRLEQQLGKPYVWGGTRPDKGFDCSGLVFYAYNKILEAKLPRTANEMYHYRRATIVANNDLRRGDLLFFHIHSREIADHMGVYLGDGQFIESPRTGETIRISRLAEPFWQDHFLGARRILTEETIL |  |  |  |  |  |  |  | 3.06 |  |  |  | 
MSLSRAAIVDQLKEIVGADRVITDETVLKKNSIDRFRKFPDIHGIYTLPIPAAVVKLGSTEQVSRVLNFMNAHKINGVPRTGASATEGGLETVVENSVVLDGSAMNQIINIDIENMQATAQCGVPLEVLENALREKGYTTGHSPQSKPLAQMGGLVATRSIGQFSTLYGAIEDMVVGLEAVLADGTVTRIKNVPRRAAGPDIRHIIIGNEGALCYITEVTVKIFKFTPENNLFYGYILEDMKTGFNILREIMVEGYRPSIARLYDAEDGTQHFTHFADGKCVLIFMAEGNPRIAKVTGEGIAEIVARYPQCQRVDSKLIETWFNNLNWGPDKVAAERVQILKTGNMGFTTEVSGCWSCIHEIYESVINRIRTEFPHADDITMLGGHSSHSYQNGTNMYFVYDYNVVDCKPEEEIDKYHNPLNKIICEETIRLGGSMVHHHGIGKHRVHWSKLEHGSAWALLEGLKKQFDPNGIMNTGTIYPIEK |  |  |  |  |  | 3.54 |  |  |  |  |  | 
